From patent publication US20200164029A1 (ACCELERON PHARMA, published 2020)

What was measured:
Assay in all cases: SPR, captured hENG-hFc, soluble ligand
[1] = biological target: T1, hENG(458-581)-hFc (human, UniProt P17813 458-581)
T1 construct: Expressed in COS cells, not purified; not shown: human IgG1 Fc domain
T1 sequence: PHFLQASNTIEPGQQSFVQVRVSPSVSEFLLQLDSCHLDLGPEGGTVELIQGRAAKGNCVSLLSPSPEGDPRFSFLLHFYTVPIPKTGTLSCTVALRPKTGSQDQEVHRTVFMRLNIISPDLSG

[2] = biological target: T2, hENG(438-586)-hFc (human, UniProt P17813 438-586)
T2 construct: not shown: human IgG1 Fc domain
T2 sequence: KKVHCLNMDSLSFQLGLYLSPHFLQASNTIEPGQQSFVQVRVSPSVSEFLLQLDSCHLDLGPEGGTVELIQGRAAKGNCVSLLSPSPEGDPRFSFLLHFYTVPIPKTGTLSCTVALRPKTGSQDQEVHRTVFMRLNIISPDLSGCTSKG

[3] = biological target: T3, hENG(129-346)-hFc (human, UniProt P17813 129-346)
T3 construct: not shown: human IgG1 Fc domain
T3 sequence: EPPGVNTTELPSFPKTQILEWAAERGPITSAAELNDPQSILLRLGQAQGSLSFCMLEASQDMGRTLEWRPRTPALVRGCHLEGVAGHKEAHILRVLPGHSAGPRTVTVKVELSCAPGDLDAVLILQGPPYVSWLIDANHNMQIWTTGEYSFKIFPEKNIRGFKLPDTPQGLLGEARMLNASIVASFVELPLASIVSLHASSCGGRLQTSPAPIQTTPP

[4] = biological target: T4, hENG(166-346)-hFc (human, UniProt P17813 166-346)
T4 construct: not shown: human IgG1 Fc domain
T4 sequence: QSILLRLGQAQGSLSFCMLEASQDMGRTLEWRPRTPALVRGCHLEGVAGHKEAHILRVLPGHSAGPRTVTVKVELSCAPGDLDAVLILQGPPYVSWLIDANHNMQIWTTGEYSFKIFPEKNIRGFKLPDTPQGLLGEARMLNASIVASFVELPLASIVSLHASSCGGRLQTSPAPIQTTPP

[5] = biological target: T5, hENG(360-586)-hFc (human, UniProt P17813 360-586)
T5 construct: not shown: human IgG1 Fc domain
T5 sequence: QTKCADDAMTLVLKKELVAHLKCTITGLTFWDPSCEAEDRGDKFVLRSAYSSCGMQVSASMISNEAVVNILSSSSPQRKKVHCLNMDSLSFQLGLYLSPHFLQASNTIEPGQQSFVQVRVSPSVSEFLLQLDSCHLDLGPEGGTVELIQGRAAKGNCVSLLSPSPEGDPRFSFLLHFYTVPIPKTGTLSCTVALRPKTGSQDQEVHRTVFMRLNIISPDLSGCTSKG

[6] = biological target: T6, hENG(26-332)-hFc (human, UniProt P17813 26-332)
T6 construct: not shown: human IgG1 Fc domain
T6 sequence: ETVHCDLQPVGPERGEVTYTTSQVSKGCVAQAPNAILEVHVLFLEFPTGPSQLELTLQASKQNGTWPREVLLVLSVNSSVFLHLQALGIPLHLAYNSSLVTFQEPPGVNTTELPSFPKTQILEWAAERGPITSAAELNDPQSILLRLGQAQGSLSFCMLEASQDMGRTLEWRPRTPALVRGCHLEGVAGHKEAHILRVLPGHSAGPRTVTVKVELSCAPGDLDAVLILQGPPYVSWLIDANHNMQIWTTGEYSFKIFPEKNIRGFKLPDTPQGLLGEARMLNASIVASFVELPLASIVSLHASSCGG

[7] = biological target: T7, hENG(458-586)-hFc (human, UniProt P17813 458-586)
T7 construct: Expressed in COS cells, not purified; not shown: human IgG1 Fc domain
T7 sequence: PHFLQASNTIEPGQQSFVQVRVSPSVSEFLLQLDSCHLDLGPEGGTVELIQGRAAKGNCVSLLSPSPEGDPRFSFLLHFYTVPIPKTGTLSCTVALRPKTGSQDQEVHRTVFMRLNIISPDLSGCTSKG

[8] = biological target: T8, hENG(26-257)-hFc (human, UniProt P17813 26-257)
T8 construct: not shown: human IgG1 Fc domain
T8 sequence: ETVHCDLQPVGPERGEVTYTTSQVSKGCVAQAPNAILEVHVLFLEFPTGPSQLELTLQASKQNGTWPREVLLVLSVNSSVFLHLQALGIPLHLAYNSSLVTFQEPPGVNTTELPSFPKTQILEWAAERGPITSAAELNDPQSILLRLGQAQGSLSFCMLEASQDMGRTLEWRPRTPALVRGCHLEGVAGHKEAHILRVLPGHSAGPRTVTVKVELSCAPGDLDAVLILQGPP

[9] = biological target: T9, hENG(61-346)-hFc (human, UniProt P17813 61-346)
T9 construct: not shown: human IgG1 Fc domain
T9 sequence: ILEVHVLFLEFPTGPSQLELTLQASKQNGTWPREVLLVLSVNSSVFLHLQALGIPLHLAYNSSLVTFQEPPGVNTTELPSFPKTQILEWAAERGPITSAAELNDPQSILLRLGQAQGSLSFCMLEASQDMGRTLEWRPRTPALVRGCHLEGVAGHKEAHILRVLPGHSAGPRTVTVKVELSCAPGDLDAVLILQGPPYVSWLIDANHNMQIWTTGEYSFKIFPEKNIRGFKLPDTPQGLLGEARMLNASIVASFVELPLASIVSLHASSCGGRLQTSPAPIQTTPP

[10] = biological target: T10, hENG(360-581)-hFc (human, UniProt P17813 360-581)
T10 construct: not shown: human IgG1 Fc domain
T10 sequence: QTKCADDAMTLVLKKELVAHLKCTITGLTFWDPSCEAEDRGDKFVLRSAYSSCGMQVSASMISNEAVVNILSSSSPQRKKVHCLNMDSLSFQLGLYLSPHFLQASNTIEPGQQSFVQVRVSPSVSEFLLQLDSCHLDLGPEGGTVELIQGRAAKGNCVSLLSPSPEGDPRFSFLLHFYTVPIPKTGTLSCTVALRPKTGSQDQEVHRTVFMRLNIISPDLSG

Measured: binding result

B1: human BMP-9 (ligand, UniProt Q9UK05 320-429, looked up)
chain: SAGAGSHCQKTSLRVNFEDIGWDSWIIAPKEYEAYECKGGCFFPLADDVTPTKHAIVQTLVHLKFPTKVGKACCVPTKLSPISVLYKDDMGVPTLKYHYEGMSVAECGCR
notes: also called hBMP-9
no binding (tested: 100 nM): all assays above

B2: human BMP-10 (ligand, UniProt O95393 317-424, looked up)
chain: NAKGNYCKRTPLYIDFKEIGWDSWIIAPPGYEAYECRGVCNYPLAEHLTPTKHAIIQALVHLKNSQKASKACCVPTKLEPISILYLDKGVVTYKFKYEGMAVSECGCR
notes: also called hBMP-10
no binding (tested: 100 nM): all assays above
